± gives the standard deviation of the averaged measurements.
Assay: total protein half-life in vivo (active degradation + dilution); higher = more stable protein
[1] = E. coli NCM3722 delta-clpP delta-lon delta-hslV, growth: N-lim chemostat, doubling time 6 h
[2] = E. coli NCM3722 delta-clpP, growth: N-lim chemostat, doubling time 6 h
[3] = E. coli NCM3722 delta-hslV, growth: N-lim chemostat, doubling time 6 h
[4] = E. coli NCM3722 delta-lon, growth: N-lim chemostat, doubling time 6 h
[5] = E. coli NCM3722 delta-smpB, growth: N-lim chemostat, doubling time 6 h
[6] = wild type E. coli NCM3722, growth: C-lim chemostat, doubling time 3 h
[7] = wild type E. coli NCM3722, growth: C-lim chemostat, doubling time 6 h
[8] = wild type E. coli NCM3722, growth: C-lim chemostat, doubling time 12 h
[9] = wild type E. coli NCM3722, growth: N-lim chemostat, doubling time 6 h
[10] = wild type E. coli NCM3722, growth: N-lim chemostat, doubling time 12 h
[11] = wild type E. coli NCM3722, growth: P-lim chemostat, doubling time 6 h
[12] = wild type E. coli NCM3722, growth: P-lim chemostat, doubling time 12 h

Row | Sequence | total protein half-life in vivo [1] | total protein half-life in vivo [2] | total protein half-life in vivo [3] | total protein half-life in vivo [4] | total protein half-life in vivo [5] | total protein half-life in vivo [6] | total protein half-life in vivo [7] | total protein half-life in vivo [8] | total protein half-life in vivo [9] | total protein half-life in vivo [10] | total protein half-life in vivo [11] | total protein half-life in vivo [12]
1 | MSFDSLGLSPDILRAVAEQGYREPTPIQQQAIPAVLEGRDLMASAQTGTGKTAGFTLPLLQHLITRQPHAKGRRPVRALILTPTRELAAQIGENVRDYSKYLNIRSLVVFGGVSINPQMMKLRGGVDVLVATPGRLLDLEHQNAVKLDQVEILVLDEADRMLDMGFIHDIRRVLTKLPAKRQNLLFSATFSDDIKALAEKLLHNPLEIEVARRNTASDQVTQHVHFVDKKRKRELLSHMIGKGNWQQVLVFTRTKHGANHLAEQLNKDGIRSAAIHGNKSQGARTRALADFKSGDIRVLVATDIAARGLDIEELPHVVNYELPNVPEDYVHRIGRTGRAAATGEALSLVCVDEHKLLRDIEKLLKKEIPRIAIPGYEPDPSIKAEPIQNGRQQRGGGGRGQGGGRGQQQPRRGEGGAKSASAKPAEKPSRRLGDAKPAGEQQRRRRPRKPAAAQ | 4.67 ± 1.2 h | 5.49 ± 0.3 h | 5.007 ± 0.03 h | 5.23 ± 1.5 h | 4.98 ± 0.23 h | 3.12 h | 7.2 h | 14.7 ± 0.98 h | 5.3 ± 0.071 h | 8.71 ± 0.062 h | 4.83 ± 0.43 h | 9.31 ± 0.65 h
2 | MIDYKKNLLFILVFISGFILFTVYSYTAEKMIYNETCTANWVIFNDQGRANLTIDFMYNKKNKTGTVALSGTWQQGNRESKSIRRNIEYTWIENYDTAHLTSKKVNKFEIMDQVDDDRLAQLIPDFYVFPEKSVSYNILKQGKHAFILSIGNRAIMHCAR | – | – | – | – | – | – | – | > 16 h | – | – | – | –
3 | MPWIQLKLNTTGANAEDLSDALMEAGAVSITFQDTHDTPVFEPLPGETRLWGDTDVIGLFDAETDMNDVVAILENHPLLGAGFAHKIEQLEDKDWEREWMDNFHPMRFGERLWICPSWRDVPDENAVNVMLDPGLAFGTGTHPTTSLCLQWLDSLDLTGKTVIDFGCGSGILAIAALKLGAAKAIGIDIDPQAIQASRDNAERNGVSDRLELYLPKDQPEEMKADVVVANILAGPLRELAPLISVLPVSGGLLGLSGILASQAESVCEAYADSFALDPVVEKEEWCRITGRKN [P0A8T1] | 5.8 ± 2.4 h | 4.39 ± 0.31 h | 5.13 ± 1.4 h | 4.36 ± 0.61 h | 3.91 ± 0.063 h | 3.16 ± 0.55 h | 4.89 ± 0.5 h | 9.36 ± 0.56 h | 4.39 ± 0.22 h | 6.89 ± 0.88 h | 5.37 ± 0.1 h | 10.86 ± 0.1 h
4 | MIFTLRPYQQEAVDATLNHFRRHKTPAVIVLPTGAGKSLVIAELARLARGRVLVLAHVKELVAQNHAKYQALGLEADIFAAGLKRKESHGKVVFGSVQSVARNLDAFQGEFSLLIVDECHRIGDDEESQYQQILTHLTKVNPHLRLLGLTATPFRLGKGWIYQFHYHGMVRGDEKALFRDCIYELPLRYMIKHGYLTPPERLDMPVVQYDFSRLQAQSNGLFSEADLNRELKKQQRITPHIISQIMEFAATRKGVMIFAATVEHAKEIVGLLPAEDAALITGDTPGAERDVLIENFKAQRFRYLVNVAVLTTGFDAPHVDLIAILRPTESVSLYQQIVGRGLRLAPGKTDCLILDYAGNPHDLYAPEVGTPKGKSDNVPVQVFCPACGFANTFWGKTTADGTLIEHFGRRCQGWFEDDDGHREQCDFRFRFKNCPQCNAENDIAARRCRECDTVLVDPDDMLKAALRLKDALVLRCSGMSLQHGHDEKGEWLKITYYDEDGADVSERFRLQTPAQRTAFEQLFIRPHTRTPGIPLRWITAADILAQQALLRHPDFVVARMKGQYWQVREKVFDYEGRFRLAHELRG | 5.4 ± 0.095 h | 4.39 ± 0.49 h | 3.55 ± 0.12 h | 3.9 ± 0.26 h | 3.3 ± 0.36 h | 2.79 ± 0.44 h | 4.38 ± 0.35 h | 7.46 ± 0.87 h | 3.38 ± 0.3 h | 5.32 ± 0.49 h | 5.37 ± 0.26 h | 10.1 ± 0.45 h
5 | MSGAFNNDGRGISPLIATSWERCNKLMKRETWNVPHQAQGVTFASIYRRKKAMLTLGQAALEDAWEYMAPRECALFILDETACILSRNGDPQTLQQLSALGFNDGTYCAEGIIGTCALSLAAISGQAVKTMADQHFKQVLWNWAFCATPLFDSKGRLTGTIALACPVEQTTAADLPLTLAIAREVGNLLLTDSLLAETNRHLNQLNALLESMDDGVISWDEQGNLQFINAQAARVLRLDATASQGRAITELLTLPAVLQQAIKQAHPLKHVEATFESQHQFIDAVITLKPIIETQGTSFILLLHPVEQMRQLMTSQLGKVSHTFAHMPQDDPQTRRLIHFGRQAARSSFPVLLCGEEGVGKALLSQAIHNESERAAGPYIAVNCELYGDAALAEEFIGGDRTDNENGRLSRLELAHGGTLFLEKIEYLAVELQSALLQVIKQGVITRLDARRLIPIDVKVIATTTADLAMLVEQNRFSRQLYYALHAFEITIPPLRMRRGSIPALVNNKLRSLEKRFSTRLKIDDDALARLVSCAWPGNDFELYSVIENLALSSDNGRIRVSDLPEHLFTEQATDDVSATRLSTSLSFAEVEKEAIINAAQVTGGRIQEMSALLGIGRTTLWRKMKQHGIDAGQFKRRV | 6.1 ± 0.41 h | 4.96 h | 3.96 h | – | 4.08 ± 0.059 h | 2.56 ± 0.055 h | 4.31 ± 1 h | 9.42 ± 0.77 h | 4.53 ± 0.17 h | 8.2 ± 0.45 h | 4.11 ± 0.61 h | 7.3 ± 0.38 h
6 | MFHCPLCQHAAHARTSRYITDTTKERYHQCQNVNCSATFITYESVQRYIVKPGEVHVVRPHPLPSGQQIMWM | 5.58 ± 1.3 h | – | – | – | – | – | – | – | – | – | – | –
